Measurements published in IntAct's records for PubMed 21934712.

Target: scc4_human MAU2 (UniProt Q9Y6X3)
Sequence of UniProt Q9Y6X3 (Q9Y6X3 whole entry): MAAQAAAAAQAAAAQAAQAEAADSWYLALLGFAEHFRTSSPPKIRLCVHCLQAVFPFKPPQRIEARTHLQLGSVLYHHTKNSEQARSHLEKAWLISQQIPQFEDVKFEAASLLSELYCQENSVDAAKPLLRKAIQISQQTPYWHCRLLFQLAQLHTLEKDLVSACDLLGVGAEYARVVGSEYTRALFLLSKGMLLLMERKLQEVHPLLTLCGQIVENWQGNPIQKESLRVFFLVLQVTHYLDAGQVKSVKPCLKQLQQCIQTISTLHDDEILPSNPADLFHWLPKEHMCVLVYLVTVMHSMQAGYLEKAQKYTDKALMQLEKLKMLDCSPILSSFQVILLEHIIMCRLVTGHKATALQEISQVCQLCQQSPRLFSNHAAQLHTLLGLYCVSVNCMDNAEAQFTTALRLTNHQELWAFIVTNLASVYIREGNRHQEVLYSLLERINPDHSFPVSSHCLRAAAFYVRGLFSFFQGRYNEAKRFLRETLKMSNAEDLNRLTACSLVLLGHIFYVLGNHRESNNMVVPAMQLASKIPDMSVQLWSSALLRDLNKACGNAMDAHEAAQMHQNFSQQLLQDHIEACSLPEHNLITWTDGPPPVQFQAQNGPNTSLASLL

effect of a mutation on the interaction	Substance
decreasing interaction strength	Nipped-B-like protein (Homo sapiens), Q6KC79 G15R
decreasing interaction strength	Nipped-B-like protein (Homo sapiens), Q6KC79 P29Q
